Measured values taken from US6824991B2, “Human bad polypeptides, encoding nucleic acids and methods of use” (IDUN Pharmaceuticals Inc., priority 1996, dated 2004).

T1: Bad (Homo sapiens, UniProt Q92934)
T1 construct: expressed in transfected cells; host or cells: yeast strain EGY191
T1 sequence (Q92934 1-168): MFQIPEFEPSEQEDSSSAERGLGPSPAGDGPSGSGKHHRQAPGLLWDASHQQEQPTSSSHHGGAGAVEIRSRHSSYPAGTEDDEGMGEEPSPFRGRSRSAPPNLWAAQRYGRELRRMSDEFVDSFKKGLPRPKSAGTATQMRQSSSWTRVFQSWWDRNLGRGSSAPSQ

T2: Bak (Homo sapiens, UniProt Q16611)
T2 construct: expressed in transfected cells; host or cells: yeast strain EGY191
T2 sequence (Q16611 1-190 limits assumed): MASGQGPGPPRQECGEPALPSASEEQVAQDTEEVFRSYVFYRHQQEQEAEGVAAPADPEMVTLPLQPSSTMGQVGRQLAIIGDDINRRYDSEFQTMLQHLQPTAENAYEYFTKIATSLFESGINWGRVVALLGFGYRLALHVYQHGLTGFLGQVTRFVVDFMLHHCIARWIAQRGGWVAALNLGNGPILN

B1: human Bad: human Bcl-xL/Bcl-2 associated death promoting polypeptide, SEQ ID NO:2, encoded by cDNA clone BM1 (protein, listed as Homo sapiens)
chain: T1 sequence (Q92934 1-168)
B2: 6HBad: full length human Bad with a six residue Histidine tag, expressed from pET-15 6H Bad in E. coli (protein)
chain: T1 sequence (Q92934 1-168)
modifications: left off: small tags and cut ends

Legend:
Bcl-XL = molecular target: T3, Bcl-XL (Homo sapiens, UniProt Q07817); assay: yeast two-hybrid assay, human Bad bait with Bcl-XL prey; format: binding; conditions: yeast strain EGY191, LexA-Bad bait, B42 prey, FIG. 3
T3 construct: expressed in transfected cells; host or cells: yeast strain EGY191
T3 sequence (Q07817 1-212 limits assumed): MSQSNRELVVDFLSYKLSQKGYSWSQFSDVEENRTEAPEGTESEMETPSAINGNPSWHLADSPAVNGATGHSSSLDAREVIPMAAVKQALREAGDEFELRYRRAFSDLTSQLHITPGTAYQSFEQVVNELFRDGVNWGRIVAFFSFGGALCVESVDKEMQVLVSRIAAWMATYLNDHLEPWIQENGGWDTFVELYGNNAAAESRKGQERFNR
Source text: (§1) To assess whether Bcl-2 family members bind to or otherwise interact with human Bad and to map their binding domains, a yeast two-hybrid system was employed using the above described clones. Briefly, the full length human Bad sequence was subcloned into the yeast 2-hybrid vector pEGE202, or “bait-vector” to express Bad as a fusion protein with the DNA-binding protein LexA (Ruden et al., Nature (1991) 350:426-430). Human Bcl-2, Bcl-X, Bax, Bak and Bad were similarly cloned into the yeast 2-hybrid vector pJG4-5, or “prey-vector” to expressed these Bcl-2 family members as fusion proteins with the transcriptional activator B42 (Gyuris et al., Cell (1993) 75:791-803). Briefly, the full length human Bad sequence was amplified by PCR and subcloned into the bait-vector. For the PCR reaction we used the following primers: 5′ATCAGTGAATTCACTATGTTCCAGATCCCA GAC3′ (SEQ ID NO: 4) and 5′ATCGATCTCGAGTCACTGGGAGGGGGCGGA GCT3′ (SEQ ID NO: 5). […]
(§2) To determine if human Bad binds to any of the above Bcl-2 family members, the Bad-bait plasmid was cotransformed with every prey plasmid and the reporter plasmid p18-34 into the yeast strain EGY191. […] The reaction was stopped with 0.4 M NaOH and the plate was read at an OD 420 nm. Protein-protein interaction was measured as beta-galactosidase activity using the following equation: OD 420:(OD 600×0.1 ml×ONPG reaction time).

Bax = molecular target: T4, Bax (Homo sapiens, UniProt Q07812); assay: yeast two-hybrid assay, human Bad bait with Bax prey; format: binding; conditions: yeast strain EGY191, LexA-Bad bait, B42 prey, FIG. 3
T4 construct: expressed in transfected cells; host or cells: yeast strain EGY191
T4 sequence (Q07812 1-174 limits assumed): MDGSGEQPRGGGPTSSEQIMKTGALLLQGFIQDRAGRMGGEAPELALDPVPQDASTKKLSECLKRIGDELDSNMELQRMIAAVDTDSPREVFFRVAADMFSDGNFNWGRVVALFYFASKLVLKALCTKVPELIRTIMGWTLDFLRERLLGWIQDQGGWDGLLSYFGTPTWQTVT
Source text: as §1, §2

Bad = molecular target: T1, Bad; assay: yeast two-hybrid assay, human Bad bait with Bad prey; format: binding; conditions: yeast strain EGY191, LexA-Bad bait, B42 prey, FIG. 3
Source text: as §1, §2

Bcl-2 = molecular target: T5, Bcl-2 (Homo sapiens, UniProt P10415); assay: yeast two-hybrid assay, human Bad bait with Bcl-2 prey; format: binding; conditions: yeast strain EGY191, LexA-Bad bait, B42 prey, FIG. 3
T5 construct: expressed in transfected cells; host or cells: yeast strain EGY191
T5 sequence (P10415 1-218 limits assumed): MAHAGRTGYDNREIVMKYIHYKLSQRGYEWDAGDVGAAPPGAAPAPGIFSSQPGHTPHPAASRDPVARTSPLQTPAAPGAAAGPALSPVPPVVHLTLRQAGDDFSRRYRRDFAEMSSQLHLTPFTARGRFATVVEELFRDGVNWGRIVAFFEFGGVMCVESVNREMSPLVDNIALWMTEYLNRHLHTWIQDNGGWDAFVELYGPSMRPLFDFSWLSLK
Source text: as §1, §2

Bak = molecular target: T2, Bak; assay: yeast two-hybrid assay, human Bad bait with Bak prey; format: binding; conditions: yeast strain EGY191, LexA-Bad bait, B42 prey, FIG. 3
Source text: as §1, §2

GST-Bcl-2 = GST-Bcl-2 (Homo sapiens, UniProt P10415); assay: ELISA-type binding assay, plate-coated 6HBad with GST-Bcl-2; conditions: anti-GST detection, FIG. 4
Sequence of GST-Bcl-2 (P10415 whole entry): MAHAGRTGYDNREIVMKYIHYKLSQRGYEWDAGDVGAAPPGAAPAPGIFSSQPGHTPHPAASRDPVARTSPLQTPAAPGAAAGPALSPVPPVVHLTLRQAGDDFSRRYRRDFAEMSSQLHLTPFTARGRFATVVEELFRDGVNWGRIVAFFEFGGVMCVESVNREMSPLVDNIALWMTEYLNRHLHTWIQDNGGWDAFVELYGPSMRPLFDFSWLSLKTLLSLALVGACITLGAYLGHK

GST-Bcl-XL = molecular target: T6, GST-Bcl-XL (Homo sapiens, UniProt Q07817); assay: ELISA-type binding assay, plate-coated 6HBad with GST-Bcl-XL; conditions: FIG. 4
T6 construct: made in house; host or cells: E. coli XL1-Blue (pGEX constructs); E. coli BL21 pLysS (6HBad)
T6 sequence (Q07817 1-211 limits assumed): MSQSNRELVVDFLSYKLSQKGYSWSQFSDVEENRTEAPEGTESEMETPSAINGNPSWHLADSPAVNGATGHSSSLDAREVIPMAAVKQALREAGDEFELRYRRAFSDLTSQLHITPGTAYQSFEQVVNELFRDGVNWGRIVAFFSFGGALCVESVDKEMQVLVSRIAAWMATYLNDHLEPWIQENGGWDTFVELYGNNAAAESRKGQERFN
Source text: To generate fusion proteins for these screening assays, Bad and Bcl-xL were cloned into pET-15b (Novagen) and pGEX 4T1 (Pharmacia) vectors, respectively. The pET15b-bad construct was made as follows. Full length bad cDNA was amplified by PCR using cDNA BM1 as template and primers containing NdeI (5′) and XhoI (3′) restriction sites (5′ primer: 5′-GGGAATTCCATATGTTCCAGATCCCAGAG-3′ (SEQ ID NO: 10)); 3′ primer: 5′-TACAGTCTCGAGTCACTGGGAGGGGGCGGAGCT-3′ (SEQ ID NO: 11)). The PCR product was then digested with NdeI/XhoI and ligated into the NdeI and XhoI sites of pET15b. The above primer sequences were chosen such that the bad ORF sequence would be in frame with 5′ vector sequence encoding a six residue Histidine tag. The final construct was termed pET-15 6H Bad. […]

| Molecule | protein-protein interaction with Bcl-XL (beta-galactosidase activity) (Bcl-XL) | protein-protein interaction with Bax (beta-galactosidase activity) (Bax) | protein-protein interaction with itself (beta-galactosidase activity) (Bad) | protein-protein interaction with Bcl-2 (beta-galactosidase activity) (Bcl-2) | protein-protein interaction with Bak (beta-galactosidase activity) (Bak) | interaction with GST-Bcl-2 in ELISA (GST-Bcl-2) | relative binding affinity to GST-Bcl-xL in ELISA (GST-Bcl-XL; compared with GST-Bcl-2 and GST-Bax) | interaction with GST-Bcl-XL in ELISA (GST-Bcl-XL; plate-coated 6HBad, anti-GST detection) |
| --- | --- | --- | --- | --- | --- | --- | --- | --- |
| B1 | interacts | no interactions were observed | no interactions were observed | interacts | no interactions were observed |  |  |  |
| B2 |  |  |  |  |  | interacts | highest affinity | interacts |
